In paper PMC10823521 one finds observation time until one H3·H4 dimer was dislodged from a de novo tetrasome data, which are given here for one substance.

The target in the assay is H3·H4 heterodimer (human H3.3 and H4) (human) (UniProt P84243). The assay is described as follows: high-speed atomic force microscopy; purified nucleosomes, hexasomes and de novo tetrasomes on 601 DNA (200W100), 1.5-3.5 nM, on bare mica, imaged in 10-fold-diluted buffer A at 1-2 fps, room temperature; histone core volume tracked over time; DNA present.

As for “H3·H4 heterodimer (human H3.3 and H4) (from UniProt P84243 1-136; P62805 1-103) (complex)”, the observation time until one H3·H4 dimer was dislodged from a de novo tetrasome was 2 min.
